Results: US20250382376A1 (FUDAN UNIVERSITY, published 2025)

Tests used:
[1] = target: T1, extracellular domain of human CD73 protein, C-terminus polyhistidine-tagged (human, UniProt P21589 27-547); test: ELISA, coated CD73-ECD, protein A-HRP
T1 construct: also the immunogen; also called CD73-ECD; human CD73-ECD
T1 sequence: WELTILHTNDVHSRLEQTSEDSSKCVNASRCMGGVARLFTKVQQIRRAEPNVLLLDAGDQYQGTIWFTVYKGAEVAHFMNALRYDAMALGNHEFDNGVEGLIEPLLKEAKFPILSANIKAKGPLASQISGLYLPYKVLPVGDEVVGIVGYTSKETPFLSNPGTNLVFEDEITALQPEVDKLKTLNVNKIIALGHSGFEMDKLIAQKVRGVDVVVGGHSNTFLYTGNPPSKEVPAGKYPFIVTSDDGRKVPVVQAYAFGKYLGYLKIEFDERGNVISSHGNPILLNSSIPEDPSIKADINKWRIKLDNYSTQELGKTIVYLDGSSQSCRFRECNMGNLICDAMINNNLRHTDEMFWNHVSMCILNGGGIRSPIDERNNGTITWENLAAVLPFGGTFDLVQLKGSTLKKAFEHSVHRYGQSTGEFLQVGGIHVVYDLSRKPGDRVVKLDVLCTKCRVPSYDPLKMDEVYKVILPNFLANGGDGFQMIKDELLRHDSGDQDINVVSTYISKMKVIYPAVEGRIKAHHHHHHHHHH
Description: (§1) The CD73 protein extracellular region (CD73-ECD) was diluted to 1 μg/mL using the coating solution, and an ELISA plate was coated at 100 μL/well at 4° C. overnight. Excess antigens were washed away, and the plate was blocked with 1% BSA at room temperature for 2 hours. Then, 5-fold gradient dilutions of each monoclonal antibody were added at 100 μL/well and incubated at room temperature for 1 hour. Unbound antibodies were washed away, and an appropriate concentration of Staphylococcal protein A labeled with horseradish peroxidase was added at 100 μL/well and incubated at room temperature for 0.5 hours. Unbound secondary antibodies were washed away, and TMB color development solution was added to react for about 15 minutes. 1M HCL was added at 50 µL/well to terminate the color development reaction, and then the absorbance was measured at 450 nm and the data was analyzed.

[2] = target: T2, CD73 on the surface of human cells (human, UniProt P21589 27-549); test: Flow cytometry on NCI-H1373 cells, PE-labelled secondary antibody [panel B]
T2 construct: whole, on cells; The cell line of each value is named under assay or readout; also called CD73 on the surface of tumor cells; CD73 enzyme on the surface of MDA-MB-231 cells
T2 sequence (looked up): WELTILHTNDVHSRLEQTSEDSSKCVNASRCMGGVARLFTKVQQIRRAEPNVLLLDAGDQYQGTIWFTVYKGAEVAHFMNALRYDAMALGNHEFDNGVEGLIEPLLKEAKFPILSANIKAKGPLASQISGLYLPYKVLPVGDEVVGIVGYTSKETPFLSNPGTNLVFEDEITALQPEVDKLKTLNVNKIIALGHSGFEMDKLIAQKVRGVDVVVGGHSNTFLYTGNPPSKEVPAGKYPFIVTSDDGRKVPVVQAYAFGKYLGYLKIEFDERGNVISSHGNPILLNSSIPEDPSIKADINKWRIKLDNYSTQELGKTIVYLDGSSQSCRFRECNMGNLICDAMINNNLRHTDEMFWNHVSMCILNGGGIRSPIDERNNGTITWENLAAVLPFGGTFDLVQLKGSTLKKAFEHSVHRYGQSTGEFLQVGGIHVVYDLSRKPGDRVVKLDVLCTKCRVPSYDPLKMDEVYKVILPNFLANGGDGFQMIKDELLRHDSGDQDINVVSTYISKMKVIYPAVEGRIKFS
Description: (§2) 100 μL of the test antibodies diluted from 10 μg/mL to 0.016 μg/mL in a 5-fold gradient were used as the primary antibodies, and were mixed with 1×10⁵ tumor cells suspended in 100 μL RPMI-1640 serum-free medium to make a final concentration of 5 μg/mL diluted to 0.008 μg/mL, and then incubated at 4° C. for 1 h. The cells were washed twice with PBS to remove unbound primary antibodies, and then the target cells were incubated with 200 μLPE-labeled secondary antibody at 2 μg/mL at 4° C. for 30 min. The cells were washed twice with PBS to remove unbound secondary antibodies, and finally the cells were resuspended in 200 μL PBS. The binding affinity of the test antibodies to CD73 on the surface of the corresponding cells was measured by flow cytometry.

[3] = target: T2, CD73 on the surface of human cells; test: cell-based or functional assay
[4] = target: T3, human recombinant CD73 enzyme (CD73 extracellular region) (human, UniProt P21589 27-549); test: cell-based or functional assay
T3 sequence (looked up): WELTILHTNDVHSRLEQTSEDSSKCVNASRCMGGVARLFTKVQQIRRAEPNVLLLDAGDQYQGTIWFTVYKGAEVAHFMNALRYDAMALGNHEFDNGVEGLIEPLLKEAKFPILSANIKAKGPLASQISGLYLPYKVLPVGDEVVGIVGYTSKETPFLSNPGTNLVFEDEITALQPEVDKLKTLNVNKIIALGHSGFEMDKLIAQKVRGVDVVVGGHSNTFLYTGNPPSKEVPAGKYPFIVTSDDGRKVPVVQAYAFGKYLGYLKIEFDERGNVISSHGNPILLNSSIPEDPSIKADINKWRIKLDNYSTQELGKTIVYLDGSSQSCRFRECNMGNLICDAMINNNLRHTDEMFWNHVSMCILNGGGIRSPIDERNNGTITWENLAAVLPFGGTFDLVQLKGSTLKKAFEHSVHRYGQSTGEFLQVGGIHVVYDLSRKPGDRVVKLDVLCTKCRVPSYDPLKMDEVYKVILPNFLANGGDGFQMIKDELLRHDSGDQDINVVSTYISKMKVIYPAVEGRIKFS

[5] = target: T1, extracellular domain of human CD73 …; test: ELISA on coated human CD73-ECD, HRP-protein A detection; fitted upper plateau of the OD450 curve; parameters: unit not given here
Description: as §1

[6] = target: T2, CD73 on the surface of human cells; test: flow cytometry on SW1573 cells
Description: as §2

[7] = target: T2, CD73 on the surface of human cells; test: Flow cytometry on PC9 cells, PE-labelled secondary antibody [panel A]
Description: as §2

[8] = target: T2, CD73 on the surface of human cells; test: flow cytometry on HCC44 cells
Description: as §2

[9] = target: T2, CD73 on the surface of human cells; test: flow cytometry on NCI-H1975 cells
Description: as §2

[10] = target: T2, CD73 on the surface of human cells; test: Flow cytometry on HCC44 cells, PE-labelled secondary antibody
Description: as §2

[11] = target: T2, CD73 on the surface of human cells; test: Flow cytometry on SW1573 cells, PE-labelled secondary antibody [panel A]
Description: as §2

B1: chimeric nanobody 4-D04 (Fc fusion)
VHH: QLQLVESGGGLVQPGGSLRLSCAASGFTLDYYNIGWFRQAPGKEREGVSCISSSEGSTYYADSVKGRFTISRDNAKNTVYLQMNSLKPEDTAVYYCAADRYYYCSLHVSQYDYWGQGTLVTVSS
notes: Human-alpaca chimeric antibody
[1]
  EC50: 0.00267 µg/mL
[2]
  Max MFI: 220000 MFI
[3]
  EC50, reversal of the AMP inhibition of human T lymphocyte proliferation: 0.0025 µg/mL
  IC50, inhibition of AMP hydrolysis by CD73 on MDA-MB-231 cells: 0.093 µg/mL
[4]
  IC50, inhibition of AMP hydrolysis by recombinant human CD73 enzyme (CellTiter-Glo): 0.00563 µg/mL
[5]
  Top (%): 2.08
[6]
  EC50: 0.067 µg/mL
[7]
  Max MFI: 65000 MFI
[8]
  EC50: 0.114 µg/mL
[9]
  EC50: 0.068 µg/mL
[10]
  Max MFI: 145000 MFI
[11]
  Max MFI: 71300 MFI

B2: chimeric nanobody 4-B02 (Fc fusion)
VHH: EVQLVESGGGLVQPGGSLRLSCAASGFPLDYYSIGWFRQAPGKEREGVSCIGSSDGSTYYADSVKGRFTISRDNAENTVWLQMNSLKPEDTAVYYCAALKYYYCSGHEAIYDYWGQGTQVTVSG
notes: as for B1
[1]
  EC50: 0.00303 µg/mL
[2]
  Max MFI: 206000 MFI
[3]
  EC50, reversal of the AMP inhibition of human T lymphocyte proliferation: 0.0012 µg/mL
  IC50, inhibition of AMP hydrolysis by CD73 on MDA-MB-231 cells: 0.083 µg/mL
[4]
  IC50, inhibition of AMP hydrolysis by recombinant human CD73 enzyme (CellTiter-Glo): 0.00466 µg/mL
[5]
  Top (%): 2
[6]
  EC50: 0.061 µg/mL
[7]
  Max MFI: 61600 MFI
[8]
  EC50: 0.105 µg/mL
[9]
  EC50: 0.055 µg/mL
[10]
  Max MFI: 136000 MFI
[11]
  Max MFI: 73800 MFI

B3: chimeric nanobody 3-D7 (Fc fusion)
VHH: QRQLVESGGGLVQPGGSLRLSCAASGFLLDYYVIGWFRQAPGKEREGVSCISGSDRSTYYADSVKGRFTISRDNAKNTVYLQMNSLKPEDTAVYFCAADPSPVTVQAMCLPRFPVPYWGQGTQVTVST
notes: Human-alpaca chimeric antibody (VHH on hIgG1 Fc); Only the VHH is tied to the tested molecule; 37-39 exist for 3-D7-FC1/FC2/FC3; also called original antibody 3-D7
[1]
  EC50: 0.0135 µg/mL
[2]
  Max MFI: 200000 MFI
[3]
  EC50, reversal of the AMP inhibition of human T lymphocyte proliferation: 0.0247 µg/mL
  IC50, inhibition of AMP hydrolysis by CD73 on MDA-MB-231 cells: 0.483 µg/mL
[4]
  IC50, inhibition of AMP hydrolysis by recombinant human CD73 enzyme (CellTiter-Glo): 0.0382 µg/mL
  IC50, inhibition of the catalytic function of recombinant human CD73 enzyme: 0.0363 µg/mL
[5]
  Top (%): 1.79
[6]
  EC50: 0.116 µg/mL
[7]
  Max MFI: 58800 MFI
[8]
  EC50: 0.234 µg/mL
[9]
  EC50: 0.106 µg/mL
[10]
  Max MFI: 135000 MFI
[11]
  Max MFI: 71000 MFI

B4: chimeric nanobody 5-E11 (Fc fusion)
VHH: ALQLVESGGGLVQPGGSLRLSCEVSGFTLDYYNIGWFRQAPGKEREGVSCSSNSGGSTYYADSVKGRFTISRDNAKNTVYLQMNSLKPEDTGVYYCAAYRGWHPSLDARVYDYWGQGTEVTVSS
notes: Human-alpaca chimeric antibody (VHH on hIgG1 Fc); Only the VHH is tied to the tested molecule; also called original antibody 5-E11
[1]
  EC50: 0.00872 µg/mL
[2]
  Max MFI: 191000 MFI
[3]
  EC50, reversal of the AMP inhibition of human T lymphocyte proliferation: 0.0008 µg/mL
  IC50, inhibition of AMP hydrolysis by CD73 on MDA-MB-231 cells: 0.088 µg/mL
[4]
  IC50, inhibition of AMP hydrolysis by recombinant human CD73 enzyme (CellTiter-Glo): 0.00947 µg/mL
[5]
  Top (%): 2.28
[7]
  Max MFI: 58900 MFI
[8]
  EC50: 0.096 µg/mL
[9]
  EC50: 0.057 µg/mL
[10]
  Max MFI: 130000 MFI
[11]
  Max MFI: 69600 MFI
